Results as given in patent publication US20180214548A1 (SHANGHAI YUNYI HEALTHCARE AND TECHNOLOGY, published 2018).

T1: CTLA4 (human, UniProt P16410 37-162, limits assumed)
T1 sequence (looked up): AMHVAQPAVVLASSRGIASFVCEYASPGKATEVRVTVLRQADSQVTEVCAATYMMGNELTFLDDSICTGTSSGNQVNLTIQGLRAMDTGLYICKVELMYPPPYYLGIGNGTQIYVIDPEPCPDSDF

T2: ICOS (human, UniProt Q9Y6W8 21-140, limits assumed)
T2 sequence (looked up): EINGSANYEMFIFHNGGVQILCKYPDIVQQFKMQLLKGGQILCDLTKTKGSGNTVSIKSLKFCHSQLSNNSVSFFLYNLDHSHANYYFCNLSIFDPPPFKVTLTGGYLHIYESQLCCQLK

T3: B7-1 (human, UniProt P33681 35-242)
T3 sequence (looked up): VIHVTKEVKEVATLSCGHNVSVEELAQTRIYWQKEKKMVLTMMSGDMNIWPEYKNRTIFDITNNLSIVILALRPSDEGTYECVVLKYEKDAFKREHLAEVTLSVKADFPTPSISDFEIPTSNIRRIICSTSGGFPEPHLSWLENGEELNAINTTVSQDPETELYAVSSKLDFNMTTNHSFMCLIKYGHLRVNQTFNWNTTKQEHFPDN


Columns and labels:
[1] = target: T4, full length human PD-1 on cells (human, UniProt Q15116 25-288); experiment: flow cytometry, CHO-K1-hPD-1 cells; antibody 0.316 nM
T4 construct: Also used here for PD-1 on human T cells/PBMC; also called CHO-K1-hPD-1; hPD-1
T4 sequence (Q15116 25-288 limits assumed): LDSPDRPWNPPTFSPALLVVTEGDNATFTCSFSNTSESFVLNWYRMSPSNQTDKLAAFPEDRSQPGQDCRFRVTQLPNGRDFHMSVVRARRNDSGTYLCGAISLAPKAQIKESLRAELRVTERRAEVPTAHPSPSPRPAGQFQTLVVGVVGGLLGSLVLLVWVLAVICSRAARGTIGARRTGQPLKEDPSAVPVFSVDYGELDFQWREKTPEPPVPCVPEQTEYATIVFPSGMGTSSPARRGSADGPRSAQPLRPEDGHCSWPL
Description: (§1) CHO-K1 cells were stably transfected with pIRES plasmid containing the nucleic acid sequence encoding full length human PD-1 (see Example 2, step 2) to generate CHO-K1 cells stably expressing human PD-1 (herein referred to as CHO-K1-hPD-1 cells). Other CHO-K1 were stably transfected with pIRES plasmid containing the nucleic acid sequence encoding full length cyno PD-1 to generate CHO-K1 cells stably expressing cyno PD-1 (herein referred to as CHO-K1-cPD-1 cells). CHO-K1-hPD-1 and CHO-K1-cPD-1 cells were cultured and expanded in T-75 culture flasks to 90% confluence. The culture media was aspirated, and the cells were washed twice with HBSS (Hanks Balanced Salt Solution, Invitrogen). The cells were treated with enzyme-free cell dissociation solution (Versene solution, Invitrogen) and collected. The cells were then washed twice with HBSS, cell counts were determined, and cells were resuspended with HBSS at 2×10⁶ cells/mL. Goat serum was added to the cell suspension to a final concentration of 1%, and the cells were blocked for 30 minutes on ice and then washed twice with HBSS. The cells were collected after centrifugation and resuspended in FACS buffer (HBSS+1% BSA, v/v) at 2×10⁶ cells/mL. 100 uL of the cell suspension were then added to each well of 96-well plate. 100 uL of purified anti-PD-1 antibodies from Example 2 were added to each well of the 96-well plate and incubated for 2 hours on ice. […] The samples were washed three times with FACS buffer, and 100 uL fixation buffer (4% paraformaldehyde v/v) were added to each well and incubated for 10 minutes. The cells were then washed twice with FACS buffer and resuspended in 100 uL FACS buffer. The mean fluorescence intensity (MFI) was determined using FACS Calibur (BD), and the results are shown in FIGS. 7-8 and in Tables 10-11.

[2] = target: T4, full length human PD-1 on cells; experiment: flow cytometry, CHO-K1-hPD-1 cells; antibody 10 nM
Description: as §1

[3] = target: T1, CTLA4; experiment: ELISA on coated protein (Table 9)
Protocol: (§2) 100 uL of the diluted recombinant proteins were added to each well of 96-well plate. The plates were sealed with plastic film and incubated at 4° C. overnight. The plates were washed twice with wash buffer (PBS+0.01% (v/v) Tween20), and incubated with blocking buffer (PBS+0.01% (v/v) Tween20+1% (w/w) BSA) at room temperature for 2 hours. The blocking buffer was aspirated away, and 100 uL of purified anti-PD-1 antibodies were added to each well and incubated for 2 hours at 37° C. The plates were washed three times with wash buffer (PBS+0.01% (v/v) Tween20). HRP-conjugated secondary antibody (Sigma) was added to each well and incubated for 2 hours at 37° C. After the plates were washed three times with wash buffer, 100 uL TMB substrate was added to each well and incubated for 30 minutes at room temperature. 100 uL stop solution (0.1N HCl) was added to each well to stop the reaction. The absorbance at 450 nm was measured with an ELISA plate reader (384plus SpectraMax, Molecular Devices).

[4] = target: T2, ICOS; experiment: ELISA on coated protein (Table 9)
Protocol: as §2

[5] = target: CD28 (human, UniProt P10747 19-152); experiment: ELISA on coated protein (Table 9)
Sequence of CD28 (P10747 19-152 limits assumed): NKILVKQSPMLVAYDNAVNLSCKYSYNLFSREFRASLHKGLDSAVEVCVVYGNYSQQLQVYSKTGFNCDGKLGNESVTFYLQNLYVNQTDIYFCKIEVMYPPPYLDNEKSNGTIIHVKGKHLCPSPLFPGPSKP
Protocol: as §2

[6] = target: T3, B7-1; experiment: ELISA on coated protein (Table 9)
Protocol: as §2

[7] = target: T4, full length human PD-1 on cells; experiment: flow cytometry, CHO-K1-hPD-1 cells; antibody 0.1 nM
Description: as §1

[8] = target: T4, full length human PD-1 on cells; experiment: flow cytometry, CHO-K1-hPD-1 cells; antibody 3.16 nM
Description: as §1

[9] = target: T4, full length human PD-1 on cells; experiment: flow cytometry, CHO-K1-hPD-1 cells; antibody 0.0316 nM
Description: as §1

[10] = target: T5, cyno PD-1^ECD-hFc protein (cyno monkey, UniProt B0LAJ3 25-167); experiment: ELISA, coated cyno PD-1ECD-hFc; antibody 0.1 nM
T5 construct: Prepared by the method for Immunogen A; also called Cyno Monkey PD-1^ECD-hFc; cyno monkey PD-1-hFc; not shown: human IgG Fc fragment (hFc) and its junction to the ECD
T5 sequence (B0LAJ3 entry or part of it limits assumed): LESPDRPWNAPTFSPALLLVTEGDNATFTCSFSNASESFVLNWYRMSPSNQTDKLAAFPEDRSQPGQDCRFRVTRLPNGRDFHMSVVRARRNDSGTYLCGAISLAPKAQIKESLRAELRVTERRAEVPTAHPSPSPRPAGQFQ
Protocol: as §2

[11] = target: T6, human PD-1^ECD-hFc protein (Immunogen A) (human, UniProt Q15116 25-167); experiment: ELISA, coated human PD-1ECD-hFc; antibody 10 nM
T6 construct: Biotinylated for the Octet assay; also called PD-1-hFc; hPD-1^ECD-hFc; not shown: human IgG Fc fragment (hFc)
T6 sequence (Q15116 25-167): as the sequence (B0LAJ3 entry or part of it limits assumed) above, with E2D, A10P, L19V, A35T, R75Q counted along it
Protocol: as §2

[12] = target: T4, full length human PD-1 on cells; experiment: flow cytometry, CHO-K1-hPD-1 cells; antibody 31.6 nM
Description: as §1

[13] = target: T4, full length human PD-1 on cells; experiment: flow cytometry, CHO-K1-hPD-1 cells; antibody 1 nM
Description: as §1

[14] = target: T6, human PD-1^ECD-hFc protein (Immunogen A); experiment: ELISA, coated human PD-1ECD-hFc; antibody 0.0001 nM
Protocol: as §2

Mean fluorescence intensity [1]	Mean fluorescence intensity [2]	binding result [3]	binding result [4]	binding result [5]	binding result [6]	Mean fluorescence intensity [7]	Mean fluorescence intensity [8]	Mean fluorescence intensity [9]	OD450 nm [10]	OD450 nm [11]	Mean fluorescence intensity [12]	Mean fluorescence intensity [13]	OD450 nm [14]	Binder
26.1	156	no binding	no binding	no binding	no binding	13.2	97.5	2.1	0.29	3.14	241	51.1	–	chimeric anti-PD-1 antibody 32B5C7 (antibody, V domains shown, Purified from hybridoma of Harbour H2L2 mice: human variable regions, rat constant regions) VH: EVQLLESGGGLVQPGGSLRLSCAASGFTFSSYAMSWVRQAPGKGLEWVSTISGSGGTTYYADSVKGRFTISRDNSKNTLYLQMNSLRAEDTAVYYCTLTGDPDYWGQGTLVTVSS VL: EIVLTQSPATLSLSPGERATLSCRASQSVSSYLAWYQQKPGQAPRLLIYDASKRATGIPARFSGSGSGTDFTLTISSLEPEDFAVYYCQQRNNWPLTFGGGTKVEIK
–	696	no binding	no binding	no binding	no binding	22.8	–	–	0.972	2.87	–	166	0.433	chimeric anti-PD-1 antibody 21G8F11 (antibody, V domains shown, Purified from hybridoma of Harbour H2L2 mice: human variable regions, rat constant regions) VH: EVQLLESGGGLAQPGGSLRLSCAASGFSFNTYLMHWVRQAPGKGLEWVSAISGGGGNTYYADSVKGRFTISRDNSKNTLYLQMNSLRAEDTAVYYCAKENRIPVAPFDYWGQGTLVTVSS VL: DIQMTQSPSTLSASVGDRVTITCRASQSISTWLAWYQQKPGKAPKLLIYKASSLESGVPSRFSGSGSGTEFTLTISSLQPDDLATYYCQQYNSFSWTFGQGTKVEIK
76.8	435	no binding	no binding	no binding	no binding	36.2	280	2.2	0.56	3.12	466	166	–	chimeric anti-PD-1 antibody 76G5B3 (antibody, V domains shown, Purified from hybridoma of Harbour H2L2 mice: human variable regions, rat constant regions) VH: QVQLVESGGGVVQPGRSLRLSCAASGFTFSDYGFHWVRQAPGKGLEWVAVIWYDGSNEYYTDSVKGRFTISRDNSKNTLYLQMNSLRAEDTAMYFCVVNPFDYWGQGTLVTVSS VL: DIQMTQSPSSLSAFVGDRVTITCRASQGINHYLAWYQQKPGKAPNLLILAASTLLSGVPSRFGGRGSGTDFTLIISSLQPEDVATYYCQKYDSAPYTFGQGTKLEIK
